# Numbered stars: 1 amine (or outer) side, 2 acyl side, 3 side chain; on linkers, the order of the positions; unused ones are H or OH. Bridge positions count the residues as written; N and C are the ends. Side chains are listed from the residue outwards. Ends that are not written are not given here. * marks the point of attachment. C20 diacid = O=C(O)CCCCCCCCCCCCCCCCCCC(=O)*; γGlu = O=C(O)[C@H](CCC(=O)[*:2])N[*:1]; AEEA = NCCOCCOCC(=O)O
# T1: human amylin 3(a) receptor (human calcitonin receptor co-expressed with RAMP-3) (human, UniProt P30988 25-474; O60896 24-148, limits assumed)
# T1 sequence (looked up) 1: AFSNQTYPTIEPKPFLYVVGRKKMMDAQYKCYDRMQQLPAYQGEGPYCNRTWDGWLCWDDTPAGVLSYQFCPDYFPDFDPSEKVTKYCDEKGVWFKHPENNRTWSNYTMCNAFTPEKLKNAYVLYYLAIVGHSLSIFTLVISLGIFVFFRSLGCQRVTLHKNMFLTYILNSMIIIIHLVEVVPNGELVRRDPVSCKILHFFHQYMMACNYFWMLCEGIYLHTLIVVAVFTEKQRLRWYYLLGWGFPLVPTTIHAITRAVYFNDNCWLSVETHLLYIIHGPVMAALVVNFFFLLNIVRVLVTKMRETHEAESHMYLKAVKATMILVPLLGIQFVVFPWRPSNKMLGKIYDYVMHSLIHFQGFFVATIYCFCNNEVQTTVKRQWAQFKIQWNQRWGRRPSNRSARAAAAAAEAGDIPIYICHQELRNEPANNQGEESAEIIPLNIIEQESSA
# T1 sequence (looked up) 2: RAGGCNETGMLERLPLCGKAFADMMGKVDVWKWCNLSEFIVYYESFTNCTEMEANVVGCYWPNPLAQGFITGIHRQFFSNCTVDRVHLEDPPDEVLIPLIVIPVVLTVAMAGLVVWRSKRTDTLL
# Target: T1, human amylin 3(a) receptor (human …)
# Assay: cell-based or functional assay
Ratio hCT/hAmylin funct. (hCTR EC50 over hAmylin-R EC50),hAmylin-R funct. EC50 (pM),Binder
21.9,47 pM,"K([AEEA-γGlu-C20 diacid])CNTATCATQRLANFLRHSSPNFGAIPSSTNVGPHTY-NH2 (disulfide 2-7; N-terminus assumed; SMILES CC[C@H](C)[C@H](NC(=O)[C@H](C)NC(=O)CNC(=O)[C@H](Cc1ccccc1)NC(=O)[C@H](CC(N)=O)NC(=O)[C@@H]1CCCN1C(=O)[C@H](CO)NC(=O)[C@H](CO)NC(=O)[C@H](Cc1c[nH]cn1)NC(=O)[C@H](CCCNC(=N)N)NC(=O)[C@H](CC(C)C)NC(=O)[C@H](Cc1ccccc1)NC(=O)[C@H](CC(N)=O)NC(=O)[C@H](C)NC(=O)[C@H](CC(C)C)NC(=O)[C@H](CCCNC(=N)N)NC(=O)[C@H](CCC(N)=O)NC(=O)[C@@H](NC(=O)[C@H](C)NC(=O)[C@@H]1CSSC[C@H](NC(=O)[C@@H](N)CCCCNC(=O)COCCOCCNC(=O)CC[C@H](NC(=O)CCCCCCCCCCCCCCCCCCC(=O)O)C(=O)O)C(=O)N[C@@H](CC(N)=O)C(=O)N[C@@H]([C@@H](C)O)C(=O)N[C@@H](C)C(=O)N[C@@H]([C@@H](C)O)C(=O)N1)[C@@H](C)O)C(=O)N1CCC[C@H]1C(=O)N[C@@H](CO)C(=O)N[C@@H](CO)C(=O)N[C@H](C(=O)N[C@@H](CC(N)=O)C(=O)N[C@H](C(=O)NCC(=O)N1CCC[C@H]1C(=O)N[C@@H](Cc1c[nH]cn1)C(=O)N[C@H](C(=O)N[C@@H](Cc1ccc(O)cc1)C(N)=O)[C@@H](C)O)C(C)C)[C@@H](C)O, also called compound 58)"
17.4,38 pM,"K([AEEA-γGlu-C20 diacid])CNTATCATQRLANFLRHSSPNFGAIPSSTNVGPNTY-NH2 (disulfide 2-7; N-terminus assumed; SMILES CC[C@H](C)[C@H](NC(=O)[C@H](C)NC(=O)CNC(=O)[C@H](Cc1ccccc1)NC(=O)[C@H](CC(N)=O)NC(=O)[C@@H]1CCCN1C(=O)[C@H](CO)NC(=O)[C@H](CO)NC(=O)[C@H](Cc1c[nH]cn1)NC(=O)[C@H](CCCNC(=N)N)NC(=O)[C@H](CC(C)C)NC(=O)[C@H](Cc1ccccc1)NC(=O)[C@H](CC(N)=O)NC(=O)[C@H](C)NC(=O)[C@H](CC(C)C)NC(=O)[C@H](CCCNC(=N)N)NC(=O)[C@H](CCC(N)=O)NC(=O)[C@@H](NC(=O)[C@H](C)NC(=O)[C@@H]1CSSC[C@H](NC(=O)[C@@H](N)CCCCNC(=O)COCCOCCNC(=O)CC[C@H](NC(=O)CCCCCCCCCCCCCCCCCCC(=O)O)C(=O)O)C(=O)N[C@@H](CC(N)=O)C(=O)N[C@@H]([C@@H](C)O)C(=O)N[C@@H](C)C(=O)N[C@@H]([C@@H](C)O)C(=O)N1)[C@@H](C)O)C(=O)N1CCC[C@H]1C(=O)N[C@@H](CO)C(=O)N[C@@H](CO)C(=O)N[C@H](C(=O)N[C@@H](CC(N)=O)C(=O)N[C@H](C(=O)NCC(=O)N1CCC[C@H]1C(=O)N[C@@H](CC(N)=O)C(=O)N[C@H](C(=O)N[C@@H](Cc1ccc(O)cc1)C(N)=O)[C@@H](C)O)C(C)C)[C@@H](C)O, also called compound 50)"

# The next lines start with the binder.
Binder,Ratio hCT/hAmylin funct. (hCTR EC50 over hAmylin-R EC50),hAmylin-R funct. EC50 (pM)
"K([AEEA-γGlu-C20 diacid])CNTATCATQRLATFLRHSSPNFGAIPSSTPVGSNTY-NH2 (disulfide 2-7; N-terminus assumed; SMILES CC[C@H](C)[C@H](NC(=O)[C@H](C)NC(=O)CNC(=O)[C@H](Cc1ccccc1)NC(=O)[C@H](CC(N)=O)NC(=O)[C@@H]1CCCN1C(=O)[C@H](CO)NC(=O)[C@H](CO)NC(=O)[C@H](Cc1c[nH]cn1)NC(=O)[C@H](CCCNC(=N)N)NC(=O)[C@H](CC(C)C)NC(=O)[C@H](Cc1ccccc1)NC(=O)[C@@H](NC(=O)[C@H](C)NC(=O)[C@H](CC(C)C)NC(=O)[C@H](CCCNC(=N)N)NC(=O)[C@H](CCC(N)=O)NC(=O)[C@@H](NC(=O)[C@H](C)NC(=O)[C@@H]1CSSC[C@H](NC(=O)[C@@H](N)CCCCNC(=O)COCCOCCNC(=O)CC[C@H](NC(=O)CCCCCCCCCCCCCCCCCCC(=O)O)C(=O)O)C(=O)N[C@@H](CC(N)=O)C(=O)N[C@@H]([C@@H](C)O)C(=O)N[C@@H](C)C(=O)N[C@@H]([C@@H](C)O)C(=O)N1)[C@@H](C)O)[C@@H](C)O)C(=O)N1CCC[C@H]1C(=O)N[C@@H](CO)C(=O)N[C@@H](CO)C(=O)N[C@H](C(=O)N1CCC[C@H]1C(=O)N[C@H](C(=O)NCC(=O)N[C@@H](CO)C(=O)N[C@@H](CC(N)=O)C(=O)N[C@H](C(=O)N[C@@H](Cc1ccc(O)cc1)C(N)=O)[C@@H](C)O)C(C)C)[C@@H](C)O, also called compound 75)",30.6,296 pM
"K([AEEA-γGlu-C20 diacid])CNTATCATQRLAHFLRHSSPNFGAIPSSTNVGPNTY-NH2 (disulfide 2-7; N-terminus assumed; SMILES CC[C@H](C)[C@H](NC(=O)[C@H](C)NC(=O)CNC(=O)[C@H](Cc1ccccc1)NC(=O)[C@H](CC(N)=O)NC(=O)[C@@H]1CCCN1C(=O)[C@H](CO)NC(=O)[C@H](CO)NC(=O)[C@H](Cc1c[nH]cn1)NC(=O)[C@H](CCCNC(=N)N)NC(=O)[C@H](CC(C)C)NC(=O)[C@H](Cc1ccccc1)NC(=O)[C@H](Cc1c[nH]cn1)NC(=O)[C@H](C)NC(=O)[C@H](CC(C)C)NC(=O)[C@H](CCCNC(=N)N)NC(=O)[C@H](CCC(N)=O)NC(=O)[C@@H](NC(=O)[C@H](C)NC(=O)[C@@H]1CSSC[C@H](NC(=O)[C@@H](N)CCCCNC(=O)COCCOCCNC(=O)CC[C@H](NC(=O)CCCCCCCCCCCCCCCCCCC(=O)O)C(=O)O)C(=O)N[C@@H](CC(N)=O)C(=O)N[C@@H]([C@@H](C)O)C(=O)N[C@@H](C)C(=O)N[C@@H]([C@@H](C)O)C(=O)N1)[C@@H](C)O)C(=O)N1CCC[C@H]1C(=O)N[C@@H](CO)C(=O)N[C@@H](CO)C(=O)N[C@H](C(=O)N[C@@H](CC(N)=O)C(=O)N[C@H](C(=O)NCC(=O)N1CCC[C@H]1C(=O)N[C@@H](CC(N)=O)C(=O)N[C@H](C(=O)N[C@@H](Cc1ccc(O)cc1)C(N)=O)[C@@H](C)O)C(C)C)[C@@H](C)O, also called compound 68)",17.4,54 pM
"K([AEEA-γGlu-C20 diacid])CNTATCATQRLAKFLRHSSPNFGAIPSSTPVGSNTY-NH2 (disulfide 2-7; N-terminus assumed; SMILES CC[C@H](C)[C@H](NC(=O)[C@H](C)NC(=O)CNC(=O)[C@H](Cc1ccccc1)NC(=O)[C@H](CC(N)=O)NC(=O)[C@@H]1CCCN1C(=O)[C@H](CO)NC(=O)[C@H](CO)NC(=O)[C@H](Cc1c[nH]cn1)NC(=O)[C@H](CCCNC(=N)N)NC(=O)[C@H](CC(C)C)NC(=O)[C@H](Cc1ccccc1)NC(=O)[C@H](CCCCN)NC(=O)[C@H](C)NC(=O)[C@H](CC(C)C)NC(=O)[C@H](CCCNC(=N)N)NC(=O)[C@H](CCC(N)=O)NC(=O)[C@@H](NC(=O)[C@H](C)NC(=O)[C@@H]1CSSC[C@H](NC(=O)[C@@H](N)CCCCNC(=O)COCCOCCNC(=O)CC[C@H](NC(=O)CCCCCCCCCCCCCCCCCCC(=O)O)C(=O)O)C(=O)N[C@@H](CC(N)=O)C(=O)N[C@@H]([C@@H](C)O)C(=O)N[C@@H](C)C(=O)N[C@@H]([C@@H](C)O)C(=O)N1)[C@@H](C)O)C(=O)N1CCC[C@H]1C(=O)N[C@@H](CO)C(=O)N[C@@H](CO)C(=O)N[C@H](C(=O)N1CCC[C@H]1C(=O)N[C@H](C(=O)NCC(=O)N[C@@H](CO)C(=O)N[C@@H](CC(N)=O)C(=O)N[C@H](C(=O)N[C@@H](Cc1ccc(O)cc1)C(N)=O)[C@@H](C)O)C(C)C)[C@@H](C)O, also called compound 74)",56.3,666 pM
"K([AEEA-γGlu-C20 diacid])CNTATCATQRLAHFLRHSSPNFGAIPSSTNVGRNTY-NH2 (disulfide 2-7; N-terminus assumed; SMILES CC[C@H](C)[C@H](NC(=O)[C@H](C)NC(=O)CNC(=O)[C@H](Cc1ccccc1)NC(=O)[C@H](CC(N)=O)NC(=O)[C@@H]1CCCN1C(=O)[C@H](CO)NC(=O)[C@H](CO)NC(=O)[C@H](Cc1c[nH]cn1)NC(=O)[C@H](CCCNC(=N)N)NC(=O)[C@H](CC(C)C)NC(=O)[C@H](Cc1ccccc1)NC(=O)[C@H](Cc1c[nH]cn1)NC(=O)[C@H](C)NC(=O)[C@H](CC(C)C)NC(=O)[C@H](CCCNC(=N)N)NC(=O)[C@H](CCC(N)=O)NC(=O)[C@@H](NC(=O)[C@H](C)NC(=O)[C@@H]1CSSC[C@H](NC(=O)[C@@H](N)CCCCNC(=O)COCCOCCNC(=O)CC[C@H](NC(=O)CCCCCCCCCCCCCCCCCCC(=O)O)C(=O)O)C(=O)N[C@@H](CC(N)=O)C(=O)N[C@@H]([C@@H](C)O)C(=O)N[C@@H](C)C(=O)N[C@@H]([C@@H](C)O)C(=O)N1)[C@@H](C)O)C(=O)N1CCC[C@H]1C(=O)N[C@@H](CO)C(=O)N[C@@H](CO)C(=O)N[C@H](C(=O)N[C@@H](CC(N)=O)C(=O)N[C@H](C(=O)NCC(=O)N[C@@H](CCCNC(=N)N)C(=O)N[C@@H](CC(N)=O)C(=O)N[C@H](C(=O)N[C@@H](Cc1ccc(O)cc1)C(N)=O)[C@@H](C)O)C(C)C)[C@@H](C)O, also called compound 84)",32.5,169 pM

# Reference: patent publication US20140087995A1 (published 2014)
